The source of these data is patent US6521748B2, “Polynucleotide encoding a mutant Rhodotorula glutinis tyrosine ammonia lyase polypeptide” (E. I. du Pont de Nemours and Company, priority 1999, dated 2003).

Series [1] has as its system tyrosine-auxotrophic E. coli strain AT2471 containing pCA18Km. As to the kind of experiment: Growth of tyrosine-auxotrophic E. coli on minimal plate with tyrosine. It is filed as cell-based. Details: key: −: no growth; +: very poor growth; ++: poor growth; +++: good growth. The conditions noted are these: no PHCA. The protocol:
(§1) In order to find the suitable condition for selection, cell growth was tested on a minimal plate containing various concentrations of tyrosine or PHCA (see Table 9).

The test system is the same in series [2]. As to the kind of experiment: Toxicity of PHCA to tyrosine-auxotrophic E. coli on minimal plate. It counts as cell-based. Particulars: for cell growth: 0.004 mM tyrosine added. The arrangement: key to cell growth: −: no growth; +: very poor growth; ++: poor growth; +++: good growth. The protocol:
as §1

A short description of series [3]: Enzyme kinetics of purified wild type and mutant PAL, PAL activity (spectrophotometric). It counts as biochemical. The conditions noted are these: phenylalanine as substrate. The procedure:
(§2) The PAL or TAL activity of the purified enzymes were measured using a spectrophotometer according to Abell et al., “Phenylalanine Ammonia-lyase from Yeast Rhodotorula glutinis,” Methods Enzymol. 142:242-248 (1987). The spectrophotometric assay for PAL determination was initiated by the addition of the enzyme to a solution containing 1.0 mM L-phenylalanine and 50 mM Tris-HCl (pH 8.5). The reaction was then followed by monitoring the absorbance of the product, cinnamic acid, at 290 nm using a molar extinction coefficient of 9000 cm^−1. The assay was run over a 5 min period using an amount of enzyme that produced absorbance changes in the range of 0.0075 to 0.018/min. One unit of activity indicated deamination of 1.0 μmol of phenylalanine to cinnamic acid per minute. The TAL activity was similarly measured using tyrosine in the reaction solution. The absorbance of the para-hydroxycinnamic acid produced was followed at 315 nm and the activity was determined using an extinction coefficient of 10,000 cm^−1 for PHCA. One unit of activity indicated deamination of 1.0 μmol of tyrosine to para-hydroxycinnamic acid per minute.
(§3) A detailed enzyme kinetics analysis using the yeast wild type and the purified mutant PAL enzyme and tyrosine or phenylalanine as substrate, was carried out. The PAL and TAL activities were measured spectrophotometrically as described in the General Methods and the KM and Vmax were determined from its Lineweaver-Burke plot. The kcat was calculated from Vmax assuming the presence of four active sites in the active tetramer.

The nature of series [4]: Enzyme kinetics of purified wild type and mutant PAL, TAL activity (spectrophotometric). It counts as biochemical. The conditions noted are these: tyrosine as substrate. The procedure: as §2, §3
Series [5] is described as follows: Ratio of TAL to PAL catalytic efficiency of purified enzymes. It counts as biochemical. The protocol: as §3
The catalytic efficiency, defined as kcat/KM, was calculated for both the wild type and mutant enzyme. The ratio of the TAL catalytic efficiency versus the PAL of the wild type enzyme was 0.5 while that of the mutant enzymes had increased to 1.7 (see Table 11).

A short description of series [6]: Whole cell TAL/PAL activity ratio (follow-up assay after high throughput screen). It is filed as cell-based, E. coli. The procedure: The following assay was performed to confirm that fully active mutant PAL enzyme was produced in BL21(DE3) E. coli cells. E. coli cells were grown in LB medium overnight. One mL of cell culture was pelleted and resuspended in 1 mL of 50 mM Tris-HCl buffer (pH 8.5) containing 0.5 mM tyrosine (for TAL activity measurement) or phenylalanine (for PAL activity measurement). The reaction mixture was incubated on the shaker at 37 C. for 1 hr. The reaction mixture was filtrated using 0.2 μm pore size filter (Millipore, Bedford, Mass.), and injected into HPLC (Hewlett-Packard Company, Palo Alto, Calif.). TAL or PAL activity was determined by measuring the concentration of the resulting PHCA or cinnamate. […]
5,000 mutant colonies were picked from agarose plates and screened by high throughput assay (Example 20). The initial hits were further investigated by a follow-up assay to confirm screening results. The TAL and PAL activities were measured using the whole cell assay, described in Example 17, and then ratio of TAL/PAL activities was calculated. The following table summarizes results of the follow-up assay for four mutants with altered TAL/PAL ratios:
A total of 5,000 mutant colonies from these three libraries were screened by high throughput assay (Example 20). Initial hits were further investigated by a follow-up HPLC assay to confirm the screening results as described in Example 21. One mutant with improved TAL/PAL ratio was found (Table 19).

Series [7] is described as follows: PAL specific activity in cell free extracts. It is filed as biochemical. Particulars: cell free extract of E. coli clones over-expressing PAL from pKK223-3. The procedure: as §2
(§4) The cell pellet was resuspended with 0.5 mL/g cells, 50 mM Tris-HCl buffer (pH 8.5) and disrupted by a single passage through the French Pressure Cell at 20,000 psi. The disrupted cells were then centrifuged for 30 min at 14,200×g to remove the unbroken cell mass. […]

A short description of series [8]: TAL specific activity in cell free extracts. It counts as biochemical. The conditions noted are these: cell free extract of E. coli clones over-expressing PAL from pKK223-3. The procedure:
as §2, §4

Series [9] can be described thus: Ratio of PAL to TAL specific activity. It is filed as biochemical. Particulars: purified enzyme.
Method: The PAL or TAL activity of the purified enzymes were measured using a spectrophotometer according to Abell et al., “Phenylalanine Ammonia-lyase from Yeast Rhodotorula glutinis,” Methods Enzymol. […] The spectrophotometric assay for PAL determination was initiated by the addition of the enzyme to a solution containing 1.0 mM L-phenylalanine and 50 mM Tris-HCl (pH 8.5). The reaction was then followed by monitoring the absorbance of the product, cinnamic acid, at 290 nm using a molar extinction coefficient of 9000 cm^−1. The assay was run over a 5 min period using an amount of enzyme that produced absorbance changes in the range of 0.0075 to 0.018/min. One unit of activity indicated deamination of 1.0 μmol of phenylalanine to cinnamic acid per minute. The TAL activity was similarly measured using tyrosine in the reaction solution. The absorbance of the para-hydroxycinnamic acid produced was followed at 315 nm and the activity was determined using an extinction coefficient of 10,000 cm^−1 for PHCA. One unit of activity indicated deamination of 1.0 μmol of tyrosine to para-hydroxycinnamic acid per minute.
The PAL/TAL activity was determined as described above.
The mark [10] stands for this setting: from Vmax assuming four active sites.

Like-named read-outs stand apart in the source and are kept apart here.

With `N[C@@H](Cc1ccc(O)cc1)C(=O)O` [Tyrosine, tyrosine], the cell growth result was “−” in series [1] (0.0001-0.0002 mM tyrosine), “+” in [1] (0.0003-0.0005 mM tyrosine) and “+++” in series [1] (0.001-0.004 mM tyrosine).
Regarding `O=C(O)C=Cc1ccc(O)cc1` [PHCA, Para-hydroxycinnamic acid], the cell growth entry is “+++” in [2] (0.0001-0.0002 mM PHCA); “+++” in [2] (0.0003-0.0005 mM PHCA); “+++” in series [2] (0.001-0.004 mM PHCA); “−” in series [2] (10 mM PHCA); “++” in [2] (1.0-2.0 mM PHCA); “+” in series [2] (4.0-6.0 mM PHCA). Moreover, the “toxicity to the cells” value in series [2] (high concentrations) is “toxic”.

B1: Wild Type PAL: wildtype R. glutinis (Rhodosporidium toruloides) PAL enzyme, SEQ ID NO:8 (protein)
chain: MAPSLDSISHSFANGVASAKQAVNGASTNLAVAGSHLPTTQVTQVDIVEKMLAAPTDSTLELDGYSLNLGDVVSAARKGRPVRVKDSDEIRSKIDKSVEFLRSQLSMSVYGVTTGFGGSADTRTEDAISLQKALLEHQLCGVLPSSFDSFRLGRGLENSLPLEVVRGAMTIRVNSLTRGHSAVRLVVLEALTNFLNHGITPIVPLRGTISASGDLSPLSYIAAAISGHPDSKVHVVHEGKEKILYAREAMALFNLEPVVLGPKEGLGLVNGTAVSASMATLALHDAHMLSLLSQSLTAMTVEAMVGHAGSFHPFLHDVTRPHPTQIEVAGNIRKLLEGSRFAVHHEEEVKVKDDEGILRQDRYPLRTSPQWLGPLVSDLIHAHAVLTIEAGQSTTDNPLIDVENKTSHHGGNFQAAAVANTMEKTRLGLAQIGKLNFTQLTEMLNAGMNRGLPSCLAAEDPSLSYHCKGLDIAAAAYTSELGHLANPVTTHVQPAEMANQAVNSLALISARRTTESNDVLSLLLATHLYCVLQAIDLRAIEFEFKKQFGPAIVSLIDQHFGSAMTGSNLRDELVEKVNKTLAKRLEQTNSYDLVPRWHDAFSFAAGTVVEVLSSTSLSLAAVNAWKVAAAESAISLTRQVRETFWSAASTSSPALSYLSPRTQILYAFVREELGVKARRGDVFLGKQEVTIGSNVSKIYEAIKSGRINNVLLKMLA
By Km is commonly meant the substrate concentration at which the rate is half of its maximum. One may read the kcat as the maximal rate divided by the concentration of active sites. Consider B1, for which the Michaelis constant (Km) was determined as 250 µM in [3] (Lineweaver-Burke plot) and 111 µM in series [4] (Lineweaver-Burke plot). For the same molecule, the turnover number (kcat) came to 2.09 s⁻¹ in series [3] (setting [10]) and 0.46 s⁻¹ in series [4] (setting [10]). In series [5], the “TAL/PAL ratio (catalytic efficiency)” value is reported as 0.5. The “TAL/PAL ratio” value came out at 0.5 in series [6]; 0.5 in series [6] (regional mutant amino acid No. 492-503, Table 19); 0.5 in series [6] (summary table of mutants). Also, the “highest specific activity, PAL” value in series [7] worked out at 0.244 U/mg protein. The “highest specific activity, TAL” value in series [8] was determined as 0.0650 U/mg protein.

B2: purified enzyme: purified PAL/TAL enzyme of Rhodosporidium toruloides (protein, UniProt P11544 1-716, looked up)
Phenylalanine/tyrosine …: MAPSLDSISHSFANGVASAKQAVNGASTNLAVAGSHLPTTQVTQVDIVEKMLAAPTDSTLELDGYSLNLGDVVSAARKGRPVRVKDSDEIRSKIDKSVEFLRSQLSMSVYGVTTGFGGSADTRTEDAISLQKALLEHQLCGVLPSSFDSFRLGRGLENSLPLEVVRGAMTIRVNSLTRGHSAVRLVVLEALTNFLNHGITPIVPLRGTISASGDLSPLSYIAAAISGHPDSKVHVVHEGKEKILYAREAMALFNLEPVVLGPKEGLGLVNGTAVSASMATLALHDAHMLSLLSQSLTAMTVEAMVGHAGSFHPFLHDVTRPHPTQIEVAGNIRKLLEGSRFAVHHEEEVKVKDDEGILRQDRYPLRTSPQWLGPLVSDLIHAHAVLTIEAGQSTTDNPLIDVENKTSHHGGNFQAAAVANTMEKTRLGLAQIGKLNFTQLTEMLNAGMNRGLPSCLAAEDPSLSYHCKGLDIAAAAYTSELGHLANPVTTHVQPAEMANQAVNSLALISARRTTESNDVLSLLLATHLYCVLQAIDLRAIEFEFKKQFGPAIVSLIDQHFGSAMTGSNLRDELVEKVNKTLAKRLEQTNSYDLVPRWHDAFSFAAGTVVEVLSSTSLSLAAVNAWKVAAAESAISLTRQVRETFWSAASTSSPALSYLSPRTQILYAFVREELGVKARRGDVFLGKQEVTIGSNVSKIYEAIKSGRINNVLLKMLA
Take B2: the PAL/TAL ratio in series [9] came to 2.12.
